# ± gives the standard error. For some of these results: Fewer inactive variants are shown than the library holds.
# B1: glmS ribozyme (parent)
# chain: AUAAAAGCGCCAGAACUACAGAAAUGUAGUUGACGAGGAGGAGGUUUAUCGAAUUUUCGGCGGAUGCCUCCAAA
# Assays:
# Details in all cases: with glucosamine-6-phosphate
# [1] = variants of: B1; test: kcat; higher = faster cleavage; RNA array
# In short: (§1)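 E. coli RNA polymerase transcribed barcoded ribozyme variants in situ on sequenced MiSeq chips, which were tracked via a hybridised Cy3 probe at 37 °C. Tiles were imaged over ~14 h after glucosamine-6-phosphate (40 μM to 10 mM) in HEPES/KCl/Mg(OAc)2 buffer was flowed in. Normalised per-tile medians were fit to one- or two-exponential decays for kobs, and kcat and KM came from weighted Michaelis–Menten fits.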
# [2] = variants of: B1; test: self-cleavage kobs at 40 uM GlcN6P; higher = faster cleavage; RNA array
# In short: as §1
# [3] = variants of: B1; test: self-cleavage kobs at 160 uM GlcN6P; higher = faster cleavage; RNA array
# In short: as §1
# [4] = variants of: B1; test: self-cleavage kobs at 640 uM GlcN6P; higher = faster cleavage; RNA array
# In short: as §1
# [5] = variants of: B1; test: self-cleavage kobs at 2500 uM GlcN6P; higher = faster cleavage; RNA array
# In short: as §1
# [6] = variants of: B1; test: self-cleavage kobs at 10000 uM GlcN6P; higher = faster cleavage; RNA array
# In short: as §1
# [7] = variants of: B1; test: KM; higher = weaker cofactor use; RNA array
# In short: as §1
Variant,kcat [1] [s⁻¹],self-cleavage kobs at 40 uM GlcN6P [2] [s⁻¹],self-cleavage kobs at 160 uM GlcN6P [3] [s⁻¹],self-cleavage kobs at 640 uM GlcN6P [4] [s⁻¹],self-cleavage kobs at 2500 uM GlcN6P [5] [s⁻¹],self-cleavage kobs at 10000 uM GlcN6P [6] [s⁻¹],KM [7] [µM]
AUAAAAGCGCCAGAACUACAGAAAUGUAGUUGACGAGGAGGAGGUUUAUCGAGUGUUCGGCGGAUGCCUCCAAA,0.0437 ± 0.021,0.0007 ± 8.8e-05,0.00323 ± 0.0008,0.00936 ± 0.0021,0.0152 ± 0.0045,0.0622 ± 0.015,
AUAAAAGCGCCAGAACUACAGAAAUGUAGUUGACGAGGAGGAGGUUUAUCGAGUAUUCGGCGGAUGCCUCCAAA,0.0853 ± 0.029,0.00112 ± 0.00013,0.00332 ± 0.00069,0.0112 ± 0.002,0.0611 ± 0.023,0.065 ± 0.014,3480 ± 1400
AUAAAAGCGCCAGAACUACAGAAAUGUAGUUGACGAGGAGGAGGUUUAUCGAGUCUUCGGCGGAUGCCUCCAAA,0.0183 ± 0.0057,0.000669 ± 7.9e-05,0.00157 ± 0.00027,0.00872 ± 0.0013,0.0106 ± 0.0024,0.0167 ± 0.0032,1230 ± 510
AUAAAAGCGCCAGAACUACAGAAAUGUAGUUGACGAGGAGGAGGUUUAUCGAGUUUUCGGCGGAUGCCGCCAAA,6.03e-05 ± 8.2e-06,5.96e-05 ± 1e-05,0.000101 ± 1.8e-05,6.89e-05 ± 1.2e-05,5.73e-05 ± 9.6e-06,5.13e-05 ± 8e-06,
AUAAAAGCGCCAGAACUACAGAAAUGUAGUUGACGAGGAGGAGGUUUAUCGAGUUUGCGGCGGAUGCCUCCAAA,5.45e-05 ± 1.2e-06,,,,3.07e-05 ± 1.4e-05,4.6e-05 ± 8.2e-06,1880 ± 180
AUAAAAGCGCCAGAACUACAGAAAUGUAGUUGACGAGGAGGAGGUUUAUCGAUUUUUCGGCGGGUGCCUCCAAA,0.0234 ± 0.0024,0.000491 ± 6.1e-05,0.00148 ± 0.00041,0.00551 ± 0.0013,0.0138 ± 0.0041,0.0195 ± 0.0038,1970 ± 260
